The source of these data is a protein production outcome set (Wang et al. 2014).
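Further: failed if final PepcDB status was selected cloned or expressed and not failed if soluble or beyond.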

The series can be described thus: label from the status in PepcDB records.
Consider “MQSPNNDYNATSKRGWFTRFLDGVEWLGNLLPHPITLFAVFCLFIIFISGIAAYFGVSAVDPRDGETVIKAVSLLNAEGIQRIVTNLVTNFTGFTPLGTVLVALLGVGVAERSGLISAAMRGLVMKAPPRLVTVTIVFAGVISNTAAELGYVVLVPLAAMIFYGLGRHPLAGLSAAFAGVSAGYSANLLIGTVDPLLSGITEEAAKIIDPAYTVGAEANWYFMMVSTFLIAIMGALITDKIVEPKLGKYNKDEASIDLSDQSSMDPLNKQEKRGLIYAGLSVLVLAGILALTVVPEWGILRHPETGDVKGSPFLKGVVVYIFFFFAIPGFVYGRTVETMRNDRDVIDAMSHSMSTMGMYIVLVFFAAQFVNFFKWTNFGTIFAINGAEFLTNIGMTGPIIFLFFIMVCGFVNLMLGSASAQWAITAPIFVPMLMLVGYSPEVIQAAYRIGDSVTNVITPMMSYFGLILAVAARYKKDLGIGTLVAMMLPYSMFFFVGWSVLFFLWVFVFGFPVGPAAPTYYN”, for which the protein production result was “not failed”. Next, “MQSRLSKILRSSVVGVAVLALLAGCSNNADDTDADSTSTGNSAFPVSIEHEFGTTTIDDVPERVVTLGVTDADIVLALGTVPVGNTGYKFFENGLGPWTDELVEGKELTLLDSDSTPDLEQVAALEPDLIIGVSAGFDDVVYEQLSDIAPVVARPAGTAAYAVAREEATNLVARAMGQSEKGQELNEETDALIQAARDENPSFDGKTGTVILPYQGKYGAYLPGDARGQFLDSLGISLPEAVLSRDTGDSFFVDVPAESVKDVDGDVLLVLSNDENLDITAENPLFETLNVVQKDAVIVATTEERGAITYNSVLSVPFALEHLAPRIAEALK”: “failed”; “MQSYSDSKPGGATFALFETEHLKANIRRALVEAVLSPWQRTFLSDVLSKLERYGNRARLSHKQLLKLNEILGGNGTPRQDRVTTSRTTRHTRRPRFRSPSFLSRQIRWSRRRLARDAVVVALIVMVGLLYSVFETGPVQSFLGTVGKSSHVMGPVDQAFTVTDGDTVHVAGERAGTRLVGFNTPEKFSPQCEYERKLGERASSRLRELVKSPNLQLTKVPCACPAGSEGTDACNHGRSCGVLKVDGRDVGQILIGEGLAVPFICEGNRCPRTPRPWCGQQS”: “failed”. Next, “MQTINTHPVQPLKLDSEVQRQMNFQFLTAMKAFFTLLTTEDNIDAVDELSSILIHSRAFELAAESMQTDPEVAHLIKERYYAPVHDVEQLLQYPADSLGYLYASTLKESGFERIDPEIIVNSDTAYIEHRWQQTHDIWHLVTGFSASGIDEIGLQAFYLAQFRLPLASMLIANALMSATLLAPEDLPQLLQTIERGWTMGLQAKPLFAQKWEEAWEKPLSQWRDELNIQAFS”: “failed”. Next, “MQTPKSRPGSLELPQKKSPLPAPKVVRRLKPSGAESDPKTKTISKTQIPKVVADRRSARIPLNEKKRTGRIPELESTISQLQEELKKAKEELNRSEALKREAQEEAEDAKHQLMDINASEDSRIEELRKLSQERDKTWQSELEAMQRQHGMDSTALSSAINEVQKLKSKLFESESELEQSKYEVRSLEKLVRQLEEERVNSRDSSSSMEVEELKEAMNLSRQEITQLKSAVEAAETRYQEEYIQSTLQIRSAYEQTEAVKSRYSQREAELTEELNRTKDEIEGLRKELMEKVKEDESTGDLKKLESDLMEVRGSLMDKEMELQILRSAMEKKVETANTEAMEAELKRVKIQCEQWRKAAETAASILNNDEERTDSIETSKMLKKFGVLLKKNHK”: “failed”; “MQTSIDPVFAGWDGSVAQARQLQQQLAQRVALRDEVSAAPALLAGFDVGFEDDGQTTRAAAVLLDAQTLLPLETHVARVPTSMPYVPGLLSFRELPALLRALALLARTPDLVFIDGQGIAHPRRFGIAAHFGVVTGLPSIGVAKQRLAGTFIEPGGERGDHSPILLAGAQIGWALRSKPRCNPLIVSPGHRVSMQGALDWTLRTLRAYRLPEPTRLADRLASRRGEIELQTQPTLLLEHHHHHH”: “failed”.

“MQTTAAAQERYTRTAIFLHWCMTAMIVGLIGLGFYMGQQPPSPEKYALYELHKSLGVVTVLLLFARFIWRAANPPPELPTAYSQLLRTASHLGHFALYVLMFAVPVSGWVMSAAYGRPASLFGVPIPPPVTKSEDLAELWGTIHFALGSALALVIAGHTLFALKHHFIDKDGLLWRMWVRCP”: the protein production result is “failed”.

For the sequence “MQVEQRTLNTAAHPFQITAYWLDQISDFETAVDYPIMIICPGGGFTYHSGREEAPIATRMMAAGMHTVVLNYQLIVGDQSVYPWALQQLGATIDWITTQASAHHVDCQRIILAGFSAGGHVVATYNGVATQPELRTRYHLDHYQGQHAAIILGYPVIDLTAGFPTTSAARNQITTDARLWAAQRLVTPASKPAFVWQTATDESVPPINSLKYVQAMLQHQVATAYHLFGSGIHGLALANHVTQKPGKDKYLNDQAAIWPQLALRWLQEQGLLAGNYLEHHHHHH”, the protein production result is recorded as “not failed”.

For the sequence “MQVNIILLAAGKGQRFQSSSPNKIGCATIKQLARINDKPLIVHSIDKLQPLLKNAYVHNFFVTLGANKNAIQTVLPQDISVIASQHWAEGMGHTLAESVHSIKATSSHVLVALADQALITTEHYQELLSASKEQPNKIIATLCEGQLMAPAIFPEKYFPLLVKIQGDKGAGKLLLQHAKKADAITCEDAKIDIDTFSDLERVRQHLEYALQDNQQSSL”, the protein production entry is given as “failed”. With “MQVRTLTPDDLPQACALCMDAFMQAVAPTLSAQGIETFTQVSAPQAFAERMQGDNLMLACFVEGAIAGLIELKEGRHIAMLFIAPGLQRQGIGKRLMNAALEHASAEVVTVKASLSSVPAYQRYGFTLAGDVGEFAGLVYQPMEKRLPTQPALEHHHHHH”, the protein production result was “not failed”. Then “MQWDPGGATESRSKLYIYLRFLRIEQVFFSLPMAYMGAFLAIREIPPIQVLILMFFSLFFLRTAGMTNDNLADREIDAMNPRTKSRPLVTGKITVREAKLLITISLIGFFITAYLINLYALIFAPIVALIVMSYPYMKRYTAFANYHLASIQGLAVFSGAVASLGLYAKSFTQLVTGIPWLFVISTVFWAVGFDLYNHIPDADFDKKMGLHSFAVLLGDRALMFAGLNQLISVLLALFGDIQFNLGIIAYIATILHGLIMGYAYYSATRGNFGRAFYYNIYSSIVLGIGIIIDIIV”, with “failed”. Next, “MQWRFCLTTVLGVVLSFSPSVKVQAQGLESLTYYTENYPPLNFAKEDGKPAGIAVDLLLEAAAAVNVTLNLDQIFVQPWPRSYRSALLKQDGVLFSTTRTTHRENLFNWVGPIADIKVVVLARKSSQIKVNDPIELGNYRIGVIRDDIGEQQLLQLGVPRESMVEGSTVSSLAEQLLKKRIDLLAYDERTALWWMSQDSYPVEEFETVYVLMQGSLYYAFNKNIDKSVLNDLQKGIELIKNSVNENGVTRYQAILDKY”: “failed”; “MQYIKIHALDNVAVALADLAEGTEVSVDNQTVTLRQDVARGHKFALTDIAKGANVIKYGLPIGYALADIAAGEHVHAHNTRTNL”: “not failed”; “MRAADAPDAPLPEDRRNAPVWFAHDLEAPRCTALFPRLADRRPALVVVGGFLGSGKTTFLNNCIEYHRARERFVAVIQNEVGATGVDARLMGDGAEVLALDEGCVCCSLAGSLAGGIRAITADFTPEVILLETTGLANPLNLLAELDTLRDMVRLDAVVTVVDAANIVPTLRDSDIARDQIRGADIIVCNKCDTVDETGRAALRATLTGLNGRAALHETSFGRIHPSLFMALEGERPPRGLMPAPHGTHATHADEGFAAVRLFFSGTIDEAALAPLLQQCPGAPFRIKGIVRVTDDEAPRLVQCVGARCEVERLDGGFEGTPFLVFIGRNPDETALLEHWAALGATAEPPAPQAEADTQPAQATKSASGGQSSDATRGCHDHHLEHHHHHH”: “failed”. Then “MRAERGPPKQTISLPVALRKDRDMSEIAPQNRRIRPAAIVVLFLTIALTGCLLALGTWQVQRLFWKLDLIERVDVRAHAEPVDAPAASDWPALGNPSDYEYRRVKLTGTLLNDREVQVYTVTDLGPGYWVMTPLRRDDGSSIIVNRGFVPSDRRDPSSRTGGEPTGNVEIVGLMRAPETGGLFLRTNDPANGRWYSRNIPQITQASGLSDVAPFYVDADATPNPGGLPVGGKTMLTFPNNHLSYAVTWYILAAMVVAAGWYVLRNLNAPKSKRDAD”, with “failed”; and “MRAFIAIDVSESVRDALVRAQDYIGSKEAKIKFVERENFHITLKFLGEITEEQAEEIKKILEKIAKKYKKHEVNVRGIGVFPNPNYVRVIWAGVENDEIIKKIAKEIDDELAKLGFKKEGNFVAHITLGRVKFVKDKLGLAMKLKELANEDFGSFIVEAIELKKSTLTPKGPIYETLARFELSE”, with “not failed”. “MRAGVREVIDDSSERTLQQVIERAFLRTKGAIIRQKRVFGFVSAKGGDGGSCIAANFAFALSQEPDIHVLAVDISLPFGDLDMYLSGNTHSQDLADISNASDRLDKSLLDTMVQHISPSLDLIPSPATFEKIVNIEPERVSDLIHIAASFYDYIIVDFGASIDHVGVWVLEHLDELCIVTTPSLQSLRRAGQLLKLCKEFEKPISRIEIILNRADTNSRITSDEIEKVIGRPISKRIPQDEDAMQESLLSGQSVLKVAPKSQLSKTIVDWALHLNGVSRPNKRSIWERLKIK”: the protein production entry is “not failed”. Next, “MRAISQYIAIFVITLTLSGCFFQNSDDQRWELAPQGTTSFALSRDARFALFFVKNDSIPEKNESQVKSGLHFWDLVENKELTFFGDQDQDKSTVSYIRISDNSRFAITATQTNFAVWDLGMGISEGLWSISDGIIRDVAIASNGQQVLLGLSNGKAIYINLATGRRLEFLAHREKVNSVALSANGKFALSGGNDYFAYLWDTETGQILRTFEHEKRVSRTALQRDGKYAFTADGGNEGFIWDLKTGEKITELSTLARQQVYSTARFSDDGQLLVTGSPSGTVNVWNTTSGKKLEQWRSEPLKDARPPTAVVYDVAIDKQQRVVSATSAGIAQAWLIE”: “failed”; “MRAKKRKFLQKEELSKLLQSLDMSQIGFGWFVMLAAKTGMRYAEALAITPADFDWTAQTISINKTWDYKYNKGFAKTKTLSSVRTIKIDWQIVGQFKPLIKDFPEDEPIFVEKFGDGTYKRQFNSTINNFLAVKCNETGITQISFHALRHTHASVLLAEGVSIHTISARLGHADVGVTQETYAHVLDELQKKDDQKMLSVLMQIALEHHHHHH”: “not failed”.

In the case of “MRALRGWPLAWFLLALAFAIRLLSLGSYPLMDTTEARYGEVARKMAELGDWITPWYDVGVPFWGKPPLAFWLSAGGQLLLGANEFASRLPHWLLGVLVLWLVWDWQAREDRRQARIACVLLGSSALFFVASGAVMTDMALALALVLAMRGFWLGLHGAEGIRRREGWLMFLGLGLGLLAKGPLTLILAGLPIGLWALLEWRWRALWRGLPWIRGSLLMLLVAAPWYLLAELKTPGFLEYFLLGEHWQRFVTAGWDGDRYGNAHAYPYGSVWLFLLAAAFPWSLWLPLLLWLGWRQRGEVVDGVASRRRYWLFWGLAPCLFFTFAGNVLWTYVLPGLPALALLAADLLRAPLARSAWLRRGGLACLALTPLLFALFLGSLLLGSRAEQKSTAALLASDAGWRERPLVFWPKRPYSAVFYSGGRAQRAEDSELAGWLRRDALLAIRSRSFGALPDEVRQRLRCRPPVGQYQLCQGVAPPG”, the protein production entry is reported as “failed”. Then “MRAMSKFSRIGLAGVVGAALHAILANHLAPAVQQRLPIGRVSLTFFLALLSALAAGAVLARLAPRARVAALAVAALAFLLLAAATTWLQQCTPAQLAAIDAATPLGCNLGLYNRARAHLPPDGRPAELAPGVWFDRHGLSYACLPPEAQATHLRVALADYALALVGMSLGALLGARQRRRRDQD”, with “failed”.
